B1: HDV Ribozyme (parent)
chain: GGCCGGCAUGGUCCCAGCCUCCUCGCUGGCGCCGGCUGGGCAACAUUCCGAGGGGACCGUCCCCUCGGUAAUGGCGAAUGGGACCCA

Variants of: B1
Experiment: self-cleavage, relative activity (ratio to wild type); higher = more cleavage; co-transcriptional

Row | Variant | self-cleavage
1 | A42C C75A | 0.116
2 | C13G G59U | 0.0811
3 | C14U C62A | 1.06
4 | C3U G28U | 0.0707
5 | G52A U60C | 1.08
6 | G2A C48U | 0.216
7 | G2A C48G | 0.157
8 | G40C A77C | 0.151
9 | A51G G81U | 0.356
10 | C41U U46A | 0.942
11 | C24A U47G | 0.434
12 | C3G G50C | 0.475
13 | C30A C63A | 0.481
14 | G34A C63G | 0.133
15 | G39C A71C | 0.0978
16 | A42U A71U | 0.369
17 | C36G G59C | 0.0755
18 | A71U G74A | 0.519
19 | G2U U79C | 0.0434
20 | G1A G38U | 0.0845
21 | G50A C85G | 0.878
22 | G38C G55U | 0.193
23 | C19G C48U | 0.0733
24 | C64A C66G | 0.489

Row | Variant | self-cleavage
25 | U23C U69A | 0.8
26 | C4U C32A | 0.0906
27 | U12A G54U | 0.415
28 | U37C C61G | 0.816
29 | U12C G25U | 0.0369
30 | U23A U79G | 0.665
31 | A45C G55A | 0.554
32 | C22G C64U | 0.0536
33 | G5C U72C | 0.123
34 | C30G A45C | 0.0997
35 | U27A U47C | 0.391
36 | A51U U60C | 0.594
37 | U27G U69C | 0.969
38 | C36G U65G | 0.244
39 | G67U A71U | 0.992
40 | A56C C66A | 1.21
41 | C14A C85A | 0.623
42 | C18U C61A | 0.709
43 | C26G A87C | 1.02
44 | G10C G54U | 0.897
45 | G5A A83U | 0.0426
46 | G5A A83C | 0.175
47 | C19A U46A | 0.0707
48 | A16U C57U | 0.831

Row | Variant | self-cleavage
49 | C18U G81C | 0.136
50 | C64A C75U | 0.332
51 | U69A A70G | 0.98
52 | G2C A51C | 0.0308
53 | G6U C58U | 0.617
54 | A16U U72A | 0.554
55 | G76C G81C | 0.0875
56 | A8C G50A | 0.96
57 | C4A A45C | 0.0519
58 | C15A C75A | 0.115
59 | A8U C13A | 0
60 | G5A U60A | 0.125
61 | A8C C26U | 1.01
62 | C33A A70C | 0.17
63 | C62G C84U | 0.846
64 | G29A G82C | 0.0627
65 | C13A C26A | 0.623
66 | C13U G80U | 0.185
67 | G10C A77G | 0.458
68 | U27A G59U | 0.95
69 | G5A C85A | 0.113
70 | C48A G74U | 0.38
71 | C13U G53A | 0.77
72 | C41G G50A | 0.911

Row | Variant | self-cleavage
73 | C41U C63U | 1.12
74 | C64U A87C | 0.971
75 | C18A A45C | 0.208
76 | G59A G73A | 0.665
77 | C21G G34U | 0.0604
78 | C26G C84U | 0.696
79 | C48U G52C | 0.847
80 | C15G G59A | 0.831
81 | G2C G17U | 0.0784
82 | G11C C32U | 0.192
83 | G10A C26G | 1.11
84 | G35U C86A | 0.35
85 | A51U G81A | 0.601
86 | A77G G82C | 0.389
87 | U47A U72C | 0.688
88 | U37C C62U | 1.26
89 | C15U C44U | 0.707
90 | C58U | 1.04
91 | G40U A83G | 0.597
92 | G6U C61U | 0.525
93 | C26A C61G | 1.04
94 | C19U C44U | 0.0852
95 | G11A A70G | 0.365
96 | A16U G25A | 0.0707

Row | Variant | self-cleavage
97 | C36G U60G | 0.0723
98 | C4U C86U | 0.889
99 | G25C G52A | 0.17
100 | G11A C33U | 0.271
101 | U47G C48G | 0.635
102 | C49G C84U | 0.429
103 | C57A U72A | 0.674
104 | G59A G67U | 0.918
105 | G10U C57G | 0.587
106 | C21U A83C | 0.108
107 | G5U A71C | 0
108 | C44U U47G | 0.677
109 | G55C G59C | 0.867
110 | C22A C36U | 0.149
111 | G25U G28A | 0
112 | G52A A56U | 1.1
113 | U46A G74U | 0.305
114 | G6C A70G | 0.175
115 | G17C C41G | 0.0354
116 | C66G U79C | 0.521
117 | G39A C84G | 0.0852
118 | U27C G80U | 0.21
119 | G10U C58G | 0.793
120 | G55C C58G | 1.11

Row | Variant | self-cleavage
121 | C24U A43U | 0.182
122 | C7A C44U | 0.0723
123 | C13U U79C | 0.103
124 | C7G A42G | 0.111
125 | G25C C36U | 0.0978
126 | G5A C63G | 0.0755
127 | C3U G50C | 0.686
128 | C24U G68C | 0.456
129 | U47A C75A | 0.138
130 | G50C | 0.963
131 | U27C C84G | 0.554
132 | C24A C49G | 0.787
133 | A83G C85U | 0.9
134 | G25C A78G | 0
135 | C13G C24U | 0.0504
136 | A56C G68C | 0.486
137 | G5A G31U | 0.0332
138 | G81A A83U | 0.187
139 | A51G G76C | 0.831
140 | G10U G40A | 0.745
141 | C41G U60A | 0.733
142 | C14G G68C | 0.383
143 | G6A G76A | 0.744
144 | G31C U46G | 0.266

Row | Variant | self-cleavage
145 | A16C C26A | 0.831
146 | C21U C41U | 0.267
147 | C30A G34U | 0.155
148 | C15G G35C | 0.0791
149 | G29A C33U | 0.111
150 | A42U G53A | 0.875
151 | G6U A78C | 0.252
152 | A43G A77U | 0.0504
153 | C18G G31A | 0.0811
154 | C26G C58U | 0.931
155 | U12A C18G | 0.0405
156 | G76C A77G | 1
157 | U37G G76A | 0.185
158 | G55A G82C | 0.356
159 | C15A G82A | 0.369
160 | G10C G11C | 0.462
161 | C75G G81U | 0.133
162 | C75A A87C | 0.202
163 | C58A G82U | 0.376
164 | C33U A77C | 0.298
165 | G82U C86G | 0.39
166 | A51U G76C | 1.23
167 | U27A C33U | 1.01
